Measured values published in patent US20240254227A1 (Alector, published 2024).

Columns and labels:
[1] = target: T1, murine CD300LB stably expressed on Jurkat cells (mouse, UniProt Q3U497 18-209); assay: flow cytometry, stable Jurkat cells, 10 ug/mL, isotype subtracted
T1 construct: also called muCD300LB; mouse CD300LB
T1 sequence: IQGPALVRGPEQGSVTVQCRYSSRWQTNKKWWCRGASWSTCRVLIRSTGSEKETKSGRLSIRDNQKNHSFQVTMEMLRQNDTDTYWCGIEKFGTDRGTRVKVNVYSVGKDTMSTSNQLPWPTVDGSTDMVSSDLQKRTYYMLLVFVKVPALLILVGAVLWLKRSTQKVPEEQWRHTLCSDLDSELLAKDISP
Experimental: Purified anti-CD300LB antibodies of the present disclosure were analyzed for cross-reactivity to other murine CD300 family members stably expressed in Jurkat cells (generation of which is described above). Cells were counted and labeled with 200 nM CFSE, 500 nM VioBlue, or a combination of the two to discriminate between muCD300LB, Parental cells, CD300F, and the other CD300 family members. Cells were washed thoroughly with PBS containing 2% fetal bovine serum then resuspended at a total of 240,000 cells per well. Purified antibodies at 10 μg/mL were added and incubated for one hour before the cells were washed twice again and stained with an APC-labeled anti-mouse secondary. Cells were then analyzed using a BD FACSCanto II. Antibodies were analyzed for specific binding to muCD300LB by FlowJo software by gating on live cells, then the APC gMFI calculated for each labeled population by subtracting the gMFI of the isotype control. The gMFI results of the analysis are presented below in Table 4.

murine CD300A-Fc = target: T2, murine CD300A-Fc (mouse); assay: SPR (Carterra LSA), antibody immobilised, Fc fusion at 300 or 600 nM
T2 construct: hIgG1-Fc fusion; the entry is the whole fusion chain; also called mCD300A; Mouse CD300A-Fc
Experimental: (§1) Binding of mouse anti-CD300LB IgG1 antibodies of the present disclosure to human and murine CD300 orthologs were evaluated by surface plasmon resonance (SPR) using a Carterra LSA instrument (Carterra, Salt Lake City, UT). […] A HC200M sensor chip (Carterra) was activated using the single channel flow cell with a 7-minute injection of a 1:1:1 mixture of 100 mM MES pH 5.5, 100 mM sulfo-NHS, 400 mM EDC (all reconstituted in MES pH 5.5; 100 μL of each mixed in vial immediately before running assay). After switching to the multi-channel array flow cell, the antibodies were injected over the activated chip in a 96-spot array for 10 minutes. The remaining unconjugated active groups on the chip were then blocked by injecting 1M Ethanolamine pH 8.5 (Carterra) for 7 minutes using the single channel flow cell. After priming with running buffer (HBS-TE, Carterra) with 0.5 mg/ml BSA (Sigma), the immobilized anti-CD300LB antibodies were tested for their ability to bind human and mouse recombinant CD300LB extracellular domains. Human CD300 family members and mouse CD300A were hIgG1-Fc fusions, while mouse CD300LB, mouse CD300C, mouse CD300D, and mouse CD300E were mouse IgG2a-Fc fusions (R&D Systems). Binding was assessed by injecting each analyte over the entire antibody array using the single channel flow cell. CD300 analytes were diluted to 300 nM or 600 nM in running buffer and injected in series without regeneration. Two or three buffer blanks were run between each mouse or human ortholog, respectively. Data were processed and analyzed using NextGenKIT high-throughput kinetics analysis software (Carterra).
(§2) Results of anti-CD300LB antibody binding to murine CD300 family members is provided below in Table 8.

murine CD300C-Fc = target: T3, murine CD300C-Fc (mouse); assay: as above
T3 construct: mouse IgG2a-Fc fusion (R&D Systems); the entry is the whole fusion chain; also called mCD300C; Mouse CD300C-Fc
T3 chain: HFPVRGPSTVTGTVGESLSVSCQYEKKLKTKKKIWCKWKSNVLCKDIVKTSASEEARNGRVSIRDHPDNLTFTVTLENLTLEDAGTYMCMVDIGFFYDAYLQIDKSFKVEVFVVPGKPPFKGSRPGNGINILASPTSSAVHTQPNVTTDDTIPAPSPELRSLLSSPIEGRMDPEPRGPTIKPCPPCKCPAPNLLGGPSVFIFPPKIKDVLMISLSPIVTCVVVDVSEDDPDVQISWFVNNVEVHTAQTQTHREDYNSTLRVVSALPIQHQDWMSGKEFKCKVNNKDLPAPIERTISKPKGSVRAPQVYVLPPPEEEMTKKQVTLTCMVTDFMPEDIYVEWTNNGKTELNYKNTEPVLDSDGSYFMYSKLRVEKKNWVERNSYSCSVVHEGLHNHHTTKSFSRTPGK
Experimental: as §1, §2

murine CD300LB-Fc = target: T4, murine CD300LB-Fc (mouse); assay: as above
T4 construct: mouse IgG2a-Fc fusion (R&D Systems); the entry is the whole fusion chain; also called mCD300LB; Mouse CD300LB-Fc
T4 chain: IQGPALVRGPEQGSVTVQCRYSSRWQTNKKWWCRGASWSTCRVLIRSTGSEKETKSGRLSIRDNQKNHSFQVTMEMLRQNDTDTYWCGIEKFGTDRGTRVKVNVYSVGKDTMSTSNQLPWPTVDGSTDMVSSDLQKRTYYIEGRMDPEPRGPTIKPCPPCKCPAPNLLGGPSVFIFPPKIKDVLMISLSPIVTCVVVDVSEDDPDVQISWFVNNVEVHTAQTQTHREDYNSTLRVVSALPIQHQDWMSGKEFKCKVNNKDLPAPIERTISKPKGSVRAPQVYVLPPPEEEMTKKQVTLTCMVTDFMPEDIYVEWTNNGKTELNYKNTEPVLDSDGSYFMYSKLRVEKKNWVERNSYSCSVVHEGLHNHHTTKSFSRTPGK
Experimental: as §1, §2

murine CD300E-Fc = target: T5, murine CD300E-Fc (mouse); assay: as above
T5 construct: mouse IgG2a-Fc fusion (R&D Systems); the entry is the whole fusion chain; also called mCD300E; Mouse CD300E-Fc
T5 chain: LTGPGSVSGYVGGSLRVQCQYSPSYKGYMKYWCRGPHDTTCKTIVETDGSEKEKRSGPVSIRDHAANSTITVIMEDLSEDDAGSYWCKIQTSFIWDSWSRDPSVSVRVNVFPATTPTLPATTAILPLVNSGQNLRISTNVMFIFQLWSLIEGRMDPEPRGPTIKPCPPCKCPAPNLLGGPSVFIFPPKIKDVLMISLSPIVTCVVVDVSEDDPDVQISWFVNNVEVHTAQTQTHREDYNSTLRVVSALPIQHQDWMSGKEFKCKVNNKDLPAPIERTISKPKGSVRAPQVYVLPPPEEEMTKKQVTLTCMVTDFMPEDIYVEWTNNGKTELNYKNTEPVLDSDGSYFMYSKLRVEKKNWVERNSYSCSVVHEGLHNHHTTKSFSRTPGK
Experimental: as §1, §2

[2] = target: T6, recombinant murine CD300LB overexpressed on BaF/3 cells (mouse, UniProt Q3U497 18-209); assay: cell-based or functional assay
T6 sequence: T1 sequence

T2 sequence (chain, as listed by the source limits assumed): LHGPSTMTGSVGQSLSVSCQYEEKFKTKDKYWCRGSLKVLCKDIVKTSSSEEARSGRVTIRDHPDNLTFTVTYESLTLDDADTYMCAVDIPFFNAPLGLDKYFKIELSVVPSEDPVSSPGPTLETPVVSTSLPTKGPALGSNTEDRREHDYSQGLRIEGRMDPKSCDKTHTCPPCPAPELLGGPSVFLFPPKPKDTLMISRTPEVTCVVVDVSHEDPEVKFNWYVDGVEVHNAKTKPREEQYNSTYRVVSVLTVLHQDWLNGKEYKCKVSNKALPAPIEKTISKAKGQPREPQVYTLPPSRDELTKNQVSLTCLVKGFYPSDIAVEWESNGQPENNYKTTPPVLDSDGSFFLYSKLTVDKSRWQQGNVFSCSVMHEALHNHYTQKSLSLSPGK

B1: anti-CD300LB antibody CD-18 (antibody, V domains shown)
VH: DVQLQESGPDLVKPSQSLSLTCTVTGYSITSGYSWHWIRQFPDNKLEWMGYILSRGDTNFNPSLKSRISITRSTSNNQFFLHFNSVTTEDTATYYCARDFFDYWGQGTTLTVSS
VL: DVLMTQTPLSLPVSLGDQASISCRSSQSIVHSNGNTYLEWYLQKPGQSPKLLIYKVSDRFSGVPDRFSGSGSGTDFTLKISRVEAEDLGVYFCFQGSHVPYTFGGGTKLEIK
gMFI [1]: 2520 gMFI | SPR binding (control subtracted) (murine CD300A-Fc): 2.9 | SPR binding (control subtracted) (murine CD300C-Fc): 1.5 | SPR binding (control subtracted) (murine CD300LB-Fc): 328 | SPR binding (control subtracted) (murine CD300E-Fc): -0.1 | Luminescence in BaF/3 [2]: 13000
